Molecular target: FLAG epitope tagged adenylyl cyclase 2 (rat)

32P incorporated into purified F-AC2 after PMA treatment of the cells: 3 fold
Substance: protein kinase C (enzyme)
